Assays:
[1] = molecular target: T1, human GPVI extracellular region-human Fc fusion protein (hGPVI-hFc) (human); assay: ELISA, collagen on plate, hGPVI-hFc plus antibody; +++ more than 50%, ++ 30-50%, + 10-30% inhibition
T1 construct: Expressed in COS-1, purified on Protein A; also called GPVI-HHH-hFc; hGPVIHHH-hFc

[2] = molecular target: T1, human GPVI extracellular region-human …; assay: ELISA of hybridoma culture supernatant on coated hGPVI-hFc (selection criterion)
Protocol: Next, culture supernatant was added to each well and incubated at 37° C. for one hour. After incubation, the well was washed three times with the saline containing 0.05% Tween20. Peroxidase-labeled anti-mouse immunoglobulin antibody (DAKO, P260) was 1000-fold diluted with D-PBS containing 10% rabbit serum and added to each well at 50 μL. After incubation at 37° C. for one hour, washing in a similar manner was performed and TMB solution (BioFix) was added to each well. After ten minutes at room temperature, the reaction was terminated with 0.5 M sulfuric acid solution. Subsequently, absorbance at 450 nm was measured with the plate spectrophotometer (Multiscan JX, Dainippon Pharmaceutical). As a result, the cell whose culture supernatant reacted to hGPVI-hFc was selected and a cloning with limiting dilution method (“The Introduction to Monoclonal Antibody Experimental Procedure” written by Tamie Andoh and Takeshi Chiba (Kodansha, p 83)) was performed. Eight days later, screening was done in a similar manner and the antibody which reacts to hGPVI-hFc was selected.
After one week, hybridoma, which produces a desired antibody was screened using the binding property to hGPVI-hFc and hGPVI-mL9-hFc prepared in EXAMPLE 7 as an index. That is, the purified hGPVI-hFc or hGPVI-mL9-hFc, which was prepared in EXAMPLE 1, was diluted with D-PBS (pH7.4) to 1 μg/mL. And 50 μL/well of the solution was added to make hGPVI-hFc or hGPVI-mL9-hFc-coated plate using the same method as that of EXAMPLE 2. Next, a culture supernatant was added to each well, and after incubation at room temperature for one hour, by the same method as that of EXAMPLE 2, using peroxidase-labeled anti-mouse immunoglobulin antibody (DAKO, P260) a reaction was performed to measure an absorbance. As a result, the cell producing an antibody that binds to the purified hGPVI-hFc (absorbance: equal to or more than one), but not hGPVI-mL9-hFc (abdorbance: equal to or less than 0.5) was selected and cloned by the method described in EXAMPLE 2. Eight through ten days later, a screening was done as with the similar way to obtain a hybridoma producing an L9-specific mouse anti-human GPVI antibody. As with EXAMPLE 2B (3), the obtained hybridoma was cultured and a monoclonal antibody was purified. The sub-type of each antibody was determined using IsoStrip Mouse Monoclonal antibody Isotyping Kit (Roche).

[3] = molecular target: T1, human GPVI extracellular region-human …; assay: competition ELISA on hGPVI-hFc plate; competitor: peroxidase-labelled F1232-37-2; +++ more than 50%, ++ 30-50%, + 10-30% inhibition
Protocol: (§1) To analyze a property for each antibody obtained in EXAMPLE 13, binding to human GPVI-hFc, competition with F1232-37-2 described in EXAMPLE 4 and specificity for L9 loop were investigated. That is, as for the binding to human GPVI, according to the method of EXAMPLE 2, a binding activity to immobilized antigen was measured. For the binding activity, the range of absorbance from 0.5 to 1.0 is represented by “+”, from 1.0 to 2.0 by “++”, the range more than 2.0 by “+++”. The competitive test with F1232-37-2 was performed as follows. That is, according to the method by Nakane et al. (J. Histochem. Cytochem., 22, 1084, 1974), peroxidase (TOYOBO)-labeled F1232-37-2 antibody was prepared and an antibody concentration was calculated from the amount of the antibody used.
Next, by using the peroxidase-labeled antibody, the competitive test for a variety of purified antibody was performed. That is, 25 μL of the above labeled antibody and 25 μL of each purified antibody were added to well of hGP-hFc-immobilized plate. After incubation at 37° C. for one hour, the well was washed five times with the saline containing 0.05% Tween20, and the reaction mixture was developed with TMB solution (BioFix). After incubation at room temperature for 10 minutes, the reaction was terminated with 0.5 M sulfuric acid solution and an absorbance at 450 nm was measured with the plate spectrophotometer (Multi-Scan JX, Dainippon Pharmaceutical).

[4] = molecular target: T1, human GPVI extracellular region-human …; assay: ELISA on immobilised hGPVI-hFc; + A450 0.5-1.0, ++ 1.0-2.0, +++ more than 2.0
Protocol: The hGPVI-hFc prepared by EXAMPLE 1B was diluted with D-PBS to 2 μg/mL and added to immunoplate (Maxisorp NUNC) at 50 μL/well. After incubation at 37° C. for one hour, the well was washed five times with ion-exchanged water, and D-PBS (pH7.4) containing 2% StabilGuard (Surmodics) was added to each well in 100 μL for blocking. Next, culture supernatant was added to each well and incubated at 37° C. for one hour. After incubation, the well was washed three times with the saline containing 0.05% Tween20. Peroxidase-labeled anti-mouse immunoglobulin antibody (DAKO, P260) was 1000-fold diluted with D-PBS containing 10% rabbit serum and added to each well at 50 μL. After incubation at 37° C. for one hour, washing in a similar manner was performed and TMB solution (BioFix) was added to each well. After ten minutes at room temperature, the reaction was terminated with 0.5 M sulfuric acid solution. Subsequently, absorbance at 450 nm was measured with the plate spectrophotometer (Multiscan JX, Dainippon Pharmaceutical). As a result, the cell whose culture supernatant reacted to hGPVI-hFc was selected and a cloning with limiting dilution method (“The Introduction to Monoclonal Antibody Experimental Procedure” written by Tamie Andoh and Takeshi Chiba (Kodansha, p 83)) was performed. Eight days later, screening was done in a similar manner and the antibody which reacts to hGPVI-hFc was selected.
as §1

[5] = molecular target: T2, cynomolgus monkey D1D2-human D3 chimeric GPVI-human Fc fusion protein (GPVI-FFH-hFc) (cynomolgus monkey (D1, D2) and human …); assay: SPR (BIACORE3000), GPVI-Fc on CM5 chip, antibody 1.25-40 nM as analyte, bivalent analyte fit
T2 construct: also called Monkey GPVI
T2 sequence (chain, as listed by the source mutant limits assumed): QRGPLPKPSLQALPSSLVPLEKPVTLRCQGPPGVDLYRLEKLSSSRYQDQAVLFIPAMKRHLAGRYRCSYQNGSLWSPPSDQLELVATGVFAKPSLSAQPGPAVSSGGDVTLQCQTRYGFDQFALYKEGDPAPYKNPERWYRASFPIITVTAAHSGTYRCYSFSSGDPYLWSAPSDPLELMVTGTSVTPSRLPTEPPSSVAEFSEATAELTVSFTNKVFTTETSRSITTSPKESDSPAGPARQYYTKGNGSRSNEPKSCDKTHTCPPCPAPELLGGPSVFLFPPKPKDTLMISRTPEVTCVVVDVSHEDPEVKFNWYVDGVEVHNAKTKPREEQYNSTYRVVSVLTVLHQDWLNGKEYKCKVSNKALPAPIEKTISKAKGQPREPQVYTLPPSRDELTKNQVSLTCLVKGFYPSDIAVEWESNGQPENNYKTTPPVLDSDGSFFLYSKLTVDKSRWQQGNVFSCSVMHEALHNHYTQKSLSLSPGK
Protocol: (§2) Dissociation constant for the anti-GPVI monoclonal antibody prepared in EXAMPLE 2 was measured using protein interaction analyzer BIACORE3000 (BIACORE). That is, to sensor chip, CM5 chip (BIACORE), GPVI substitution mutant (hGPVIHHH-hFc and FFH-hFc) that is prepared in EXAMPLE 1 was linked according to the manual. Then each antibody was diluted with HBS-EP buffer solution (BIACORE) to prepare a series of diluted solution from 1.25 to 40 nM, and analyzed with BIACORE3000. Every each antibody bound chip, the chip was regenerated with glycine buffer solution at pH1.5. The obtained result was analyzed with Bivalent analyte, the evaluation software (BIACORE) to calculate dissociation constant. It was shown that each anti-GPVI monoclonal antibody has a sufficient affinity to GPVI-HHH-hFc.

[6] = molecular target: T1, human GPVI extracellular region-human …; assay: as above
Protocol: as §2

T1 sequence (chain, as listed by the source limits assumed): as the sequence (chain, as listed by the source mutant limits assumed) above, with R2S, H61S, P78L, G166R, M181V, S442P counted along it

Row | Binder | percent inhibition [1] [%] | absorbance [2] [absorbance] | percent inhibition [3] [%] | absorbance [4] [od] | Kd [5] [nM] | Kd [6] [nM]
1 | F1249-18-2 (antibody, V domains shown) VH: QVQLQQPGAELVKPGASVKLSCKASGYTFTSYWMHWLKQRPGQGLEWIGMIHPNSDITNYNEKFKNKATLTVDKSSSTAYMQLSSLTSEDSAVYYCARSGDYYAMDYWGQGTSVTVSS VL: SIVMTQTPKFLLVSAGDRVTITCKASQSVSNDVAWYQQKPGQSPKLLIYYASNRYTGVPDRFTGSGYGTDFTFTISTVQAEDLAVYFCQQDYSSPPTFGGGTKLEIKR | > 50 | ≥ 1 | 30 to 50 | > 2 | – | –
2 | F1245-6-2 (antibody, V domains shown) VH: QVQLQQPGAELVKPGASVKLSCKASGYTFTSYWMHWVKQRPGQGLEWIGMIHPNSGSTNYNEKFKSKATLTVDKSSSTAYMQLSSLTSEDSAVYYCARGGVTPVAYWGQGTLVTVSA VL: SIVMTQTPKFLLVSAGDRVTITCKASQSVSNDVAWYQQKPGQSPKLLIYYASNRYTGVPYRFTGSGYGTDFTFTISTVQAEDLAVYFCQQDYSSPWTFGGGTKLEIKR | 10 to 30 | ≥ 1 | > 50 | 1 to 2 | – | –
3 | F1245-5-1 (antibody, V domains shown) VH: QVQLQQPGAELVKPGASVKLSCKASGYTFISYWMHWVKQRPGQGLEWIGMIHPNSGSTHYNEKFKSKATLTVDKSSSTAYMQLSSLTSEDSAVYYCARGGVTPVAYWGQGTLVTVSA VL: SIVMTQTPKFLLVSAGDRVTITCKASQSVSNDVAWYQQKPGQSPKLLIYYASNRYTGVPDRFTGSGYGTDFTFTISTVQAEDLAVYFCQQDYSSPWTFGGGTKLEIKR | 10 to 30 | ≥ 1 | 30 to 50 | 1 to 2 | – | –
4 | F1232-24-1 (antibody, V domains shown, Mouse hybridoma monoclonal antibody) VH: VQLQQSGAELVRPGVSVKISCKGSGYTFTDYAMHWVKQSHAKSLEWIGVISTYYGDASYNQKFKGKATMTVDKSSSTAYMELARLTSEDSAIYYCARSYDYDPWFAYWGQGTLVTVSA VL: DIVLTQSPASLAVSLGQRATISCRASESVDNYGISFMHWYQQKPGQPPKLLIYRASNLESGIPARFSGSGSRTDFTLTINPVETDDVATYYCQQSNKDPLTFGAGTKLELKR | – | – | – | – | 0.71 | 0.25
5 | F1232-18-3 (antibody, V domains shown, Mouse hybridoma monoclonal antibody) VH: VMLVESGGGLVKPGGSLKLSCAASGFTFSSYAMSWVRQTPEKRLEWVATISSGGSYTYYPDSVKGRFTISRDNAKNTLYLQMSSLRSADTAMYYCARDYGYFDYWGQGTTLTVSS VL: DIVLTQSPASLAVSLGQRATISCRASESVDNYGISFMHWYQQKPGQPPKLLFYRASNLESGIPARFSGSGSRTDFTLTINPVETDDVATYYCQQSNTDPRTFGGGTKLEIKR | – | – | – | – | 365 | 1.65

Continued, values first:

Row | percent inhibition [1] [%] | absorbance [2] [absorbance] | percent inhibition [3] [%] | absorbance [4] [od] | Kd [5] [nM] | Kd [6] [nM] | Binder
6 | 10 to 30 | ≥ 1 | 30 to 50 | 1 to 2 | – | – | F1249-5-1 (antibody, V domains shown) VH: QVQLQQPGAELVKPGASVKLSCKASGYTFTSYWMHWLKQRPGQGLEWIGMIHPNSDITNYNEKFKNKATLTVAKSSSTAYMQLSSLTSEDSAVYYCARLGDYYAMDYWGQGTSVTVSS VL: SIVMTQTPKFLLVSAGDRVTITCKASQSVSNDVTWYQQKPGQSPKLLIYYASNRYTGVPDRFTGSGYGTDFTFTISTVQAEDLAVYFCQQDYSSPPTFGGGTKLEIKR
7 | – | – | – | – | 343 | 34.7 | F1232-7-1 (antibody, V domains shown, Mouse hybridoma monoclonal antibody; also called F1232-7-1 antibody) VH: VQLQQSGPELVRPGESVKISCKGSGYTFTDYAIHWVKLSHAKSLEWIGVISIYYDDTNYNQKFKGKATMTVDKSSSTAYMELARLTSEDSAIYYCARRRDSSGPYAMDYWGQGTSVTVSS VL: DIVLTQSPASLAVSLGQRATISCRASESVDSYGNSFMHWYQQKPGQPPKLLIYRASNLESGIPARFSGSGSRTDFTLTINPVEADDVATYYCQQSNEDPYTFGGGTKLEIKR
8 | 10 to 30 | ≥ 1 | > 50 | > 2 | – | – | F1249-24-1 (antibody, V domains shown) VH: QVQLQQSGAELVRPGVSVKISCKGSGYTFTDYAMHWVKQSHAKSLEWIGVISTYYGDTSYNQKFKGKATMTVDKSSSTAYMELARLTSEDSAIYYCARAEDYDPWFAYWGQGTLVTVSA VL: DIVLTQSPASLAVSLGQRATISCRASESVDSYGNSFMHWYQQKPGQPPKLLIYRASNLESGIPARFSGSGSRTDFTLTINPVEADDVATYYCQQSDEDPLTFGAGTKLELKR
9 | – | – | – | – | 0.619 | 1.16 | F1201-18 (antibody, V domains shown, Mouse hybridoma monoclonal antibody) VH: VQLVESGGGLVKPGGSLKLSCAASGFTFSSYAMSWVRQTPEKRLEWVAIISSGGSYTYYPDSVKGRFTISRDNAKNTLYLHMSSLRSEDTAMYYCARQGGGYFDYWGQGTTLTVSS VL: DIVLTQSPASLAVSLGQRATISCRASESVDSYGNSFMHWYQQKPGQPPKLLIYRASNVESGIPARFSGSGSRTDFTLTINPVEADDVATYYCQQSNEDPPTFGAGTKLELKR
10 | – | – | – | – | 0.177 | 0.522 | F1232-17-1 (antibody, V domains shown, Mouse hybridoma monoclonal antibody) VH: VQLVESGGDLVKPGGSLKLSCAASGFTFSSYGMSWVRQTPDKRLEWVATISSGGSYTYYPDNVKGRFTISRDNAKNTLYLQMSSLNSEDTAMYYCARQVYYFGSCDYWGQGTTLTVSS VL: DIVLTQSPASLAVSLGQRATISCRASESVDNYGISFMHWYQQKPGQPPKLLIYRASNLESGIPARFSGSGSRTDFTLTINPVETDDVATYYCQQSNKDPWTFGGGTKLEIKR

Source: patent publication US20090041783A1 (MOCHIDA PHARMACEUTICAL, published 2009)
